Results reported in the RNAGym collection of RNA variant scans (doi:10.1101/gr.219683.116).

B1: mRNA-splicing (parent)
chain: AGUUGCUGCUGGGAGCUCCAGCACAGUGAAAUGGACAGAAGGGCAGAGCAA

Variants of: B1
Assay: exon inclusion enrichment index; higher = more inclusion; WT1 exon 5 minigene, HEK293

Variant	exon inclusion enrichment index
G5U C6A U7C U10C	3.2
G5C C6U U7G G8A U10A	0.0911
G5C C6U G8C C9U U10C G15U	2.23
G5U C6U U7G G8U C9U	0.119
G5U G8U C9U A20U G21A	0.0475
G5U G8U C9U A20U G21C	0.1
G5U G8U C9U A20U G21U	0.0618
G5U C6A U7G C9A	0.0473
G5C C6U G8C C9U U10C G43C C44G	4.6
G5C C6U G8C C9U U10C G43C C44A	3.17
G5C C6U G8C C9U U10C G43C C44U	1.6
G5U C6U U7C C9A U10C	2.91
G5C C6U G8C C9U U10C U27A G28A	2.06
G5C C6U G8C C9U U10C U27A G28U	0.824
G5C C6U G8C C9U U10C U27A G28C	2.07
G5C C6U G8C C9U U10G G11U	1.56
G5C C6U G8C C9U U10G G11A	2
G5C C6U G8C C9U U10G G11C	2.13
G5C C6U U7A U10C	0.444
G5U G8U C9U A29C A30G	0.414
G5U G8U C9U A29C A30C	0.344

Variant	exon inclusion enrichment index
G5U G8U C9U A29C A30U	0.0831
G5U C9U	0.393
G5U C9G	0.253
G5U C9A	0.991
G5C C6U G8C C9U U10C G34C A35G	1.38
G5C C6U G8C C9U U10C G34C A35C	0.141
G5C C6U G8C C9U U10C G34C A35U	0.385
G5C C6U G8C C9U U10C U17G C18A	2
G5C C6U G8C C9U U10C U17G C18G	1.96
G5C C6U G8C C9U U10C U17G C18U	1.64
G5U G8C C9U	0.417
G5U G8C C9G	1.51
G5U G8C C9A	0.689
G5C C6U G8C C9U U10C G46C A47G	2.72
G5C C6U G8C C9U U10C G46C A47U	1.64
G5C C6U G8C C9U U10C G46C A47C	1.76
G5U G8U C9U A20G G21C	0.187
G5U G8U C9U A20G G21A	0.241
G5U G8U C9U A20G G21U	0.195
G5C C6U G8C C9U U10C G42U G43A	3.34
G5C C6U G8C C9U U10C G42U G43C	1.23

Variant	exon inclusion enrichment index
G5C C6U G8C C9U U10C G42U G43U	2.81
G5U G8U C9G	0.267
G5U G8U C9U	0.16
G5U G8U C9A	0.194
G5C C6U G8C C9U U10C G42A G43U	3.86
G5C C6U G8C C9U U10C G42A G43A	4.1
G5C C6U G8C C9U U10C G42A G43C	4.2
G5C C6U G8C C9U U10C G41C G42A	2
G5C C6U G8C C9U U10C G41C G42C	2.99
G5C C6U G8C C9U U10C G41C G42U	2.93
G5U G8U C9U A23U C24G	0.223
G5U G8U C9U A23U C24U	0.00337
G5U G8U C9U A23U C24A	0.0491
G5C C6U U7A G8C C9U U10C	1.66
G5U C6A G8U C9U	0.0752
G5U C6A G8C C9U U10C	0.611
G5C C6U G8C C9U U10C U32A	1.46
G5C C6U G8C C9U U10C U32G	0.212
G5C C6U G8C C9U U10C U32C	3.26
G5C C6U G8C C9U U10C U32G G33C	1.97
G5C C6U G8C C9U U10C U32G G33U	0.774

Variant	exon inclusion enrichment index
G5C C6U G8C C9U U10C U32G G33A	0.468
G5C C6U U7A C9U U10C	0.234
G5C U7A U10C	1.62
G5C C6U G8C C9U U10C G43A C44A	3.42
G5C C6U G8C C9U U10C G43A C44U	2
G5C C6U G8C C9U U10C G43A C44G	3.59
G5C U7G G8C C9U U10C	0.323
G5C C6U G8C C9U U10C G33U	0.658
G5C C6U G8C C9U U10C G33A	0.198
G5C C6U G8C C9U U10C G33C	2.15
G5C C6U G8C C9U U10C G38C A39G	1.77
G5C C6U G8C C9U U10C G38C A39U	0.141
G5C C6U G8C C9U U10C G38C A39C	1.84
G5U G8U C9U A14U G15C	0.0163
G5U G8U C9U A14U G15U	0.00524
G5U G8U C9U A14U G15A	0.00362
G5U C6G G8U C9U	0.0807
G5U G8C C9U U10C	0.934
G5C U7C G8A U10A	0.03
G5C U7C G8A U10C	0.327
G5C C6U G8C C9U U10C G42U	2.42
